Details: Escherichia coli (strain K12), pH 7.6, Thermal, MOPS 25 mM, Potassium chloride 100 mM, whole UniProt chain shown

B1: Ribose import binding protein RbsB wild type, P02925 (protein)
chain: MNMKKLATLVSAVALSATVSANAMAKDTIALVVSTLNNPFFVSLKDGAQKEADKLGYNLVVLDSQNNPAKELANVQDLTVRGTKILLINPTDSDAVGNAVKMANQANIPVITLDRQATKGEVVSHIASDNVLGGKIAGDYIAKKAGEGAKVIELQGIAGTSAARERGEGFQQAVAAHKFNVLASQPADFDRIKGLNVMQNLLTAHPDVQAVFAQNDEMALGALRALQTAGKSDVMVVGFDGTPDGEKAVNDGKLAATIAQLPDQIGAKGVETADKVLKGEKVQAKYPVDLKLVVKQ
Protein B1 has a Tm (Activity) of 62.6 °C and a Tm (Quantitative cysteine reactivity) of 62.6 °C.

Reference: FireProtDB (doi:10.1073/pnas.0910421107)
